Test results published in patent publication EP0155825A2, “Novel choline derivatives” (NITTO BOSEKI CO., LTD., priority 1984, dated 1985).

Substrate: C[N+](C)(C)CCOC(=O)c1ccc(O)c(O)c1
Assay: Km of the substrate for cholinesterase (UV method, absorbance decrease at 340 nm)
Type: biochemical
Details: other: 50 mM TRIS-maleate buffer (pH 8.20); compound as substrate of Ch-E; pH 8.2; 37.0 °C
Source text: Fig. 1 represents UV spectra of 3,4-dihydroxybenzoylcholine iodide (hereinafter referred to briefly as DHBCI) and 3,4-dihydroxybenzoic acid. When DHBCI is hydrolyzed by the action of Ch-E, there are formed choline and 3,4-dihydroxybenzoic acid. […] Therefore, when DHBCI, a novel compound according to the present invention, is used as substrate in the assay of enzymatic activity of Ch-E and the reaction is traced through the absorbance at a wavelength of 340-360 nm, it is possible to follow precisely the decrease in substrate DHBCI. In the previously mentioned method of W. Kalow, since the measurement is done at a shorter wavelength of 240 nm, the initial absorption is interfered with by the blood constituents, whereas at a wavelength of 340-360 nm, the interference is very little and the conditions of reaction can be set up more easily. […]
The assay was performed by adjusting the substrate concentration to 0.25 mM with a 50 mM TRIS-maleate buffer (pH 8.20), preheating for about 5 minutes 2.0 mt of-the adjusted solution to 37°C, admixing the preheated solution with 200 µℓ of a serum, and immediately measuring the absorbance decrease at 340 nm of the mixture at 37°C. […] The activity of Ch-E was calculated from the following equation: [formula] • ^* ΔO.D.: Absorbance change per minute at a wavelength of 340 nm. • ^** Molar absorbance at 340 nm: 2960

B1: cholinesterase (enzyme code number of 3.1.1.8; referred to briefly as Ch-E) (Homo sapiens) (protein)
chain: EDDIIIATKNGKVRGMNLTVFGGTVTAFLGIPYAQPPLGRLRFKKPQSLTKWSDIWNATKYANSCCQNIDQSFPGFHGSEMWNPNTDLSEDCLYLNVWIPAPKPKNATVLIWIYGGGFQTGTSSLHVYDGKFLARVERVIVVSMNYRVGALGFLALPGNPEAPGNMGLFDQQLALQWVQKNIAAFGGNPKSVTLFGESAGAASVSLHLLSPGSHSLFTRAILQSGSFNAPWAVTSLYEARNRTLNLAKLTGCSRENETEIIKCLRNKDPQEILLNEAFVVPYGTPLSVNFGPTVDGDFLTDMPDILLELGQFKKTQILVGVNKDEGTAFLVYGAPGFSKDNNSIITRKEFQEGLKIFFPGVSEFGKESILFHYTDWVDDQRPENYREALGDVVGDYNFICPALEFTKKFSEWGNNAFFYYFEHRSSKLPWPEWMGVMHGYEIEFVFGLPLERRDNYTKAEEILSRSIVKRWANFAKYGNPNETQNNSTSWPVFKSTEQKYLTLNTESTRIMTKLRAQQCRFWTSFFPKVLEMTGNIDEAEWEWKAGFHRWNNYMMDWKNQFNDYTSKKESCVGL
notes: admixing the preheated solution with 200 µℓ of a serum; tissue Nissui Seiyaku Co. consera I; host or cells: serum (commercial control serum)
- Km: 26 µM
